Measured values from article PMC3579926.
“And” between values parts separate entries of the source, which are not always exact repeats. Identical values can stand only once.

Tests used:
Test in all cases: SEC; Superdex 200 (10/300), 4°C, protein at 1 mg/mL, 20 mM HEPES-NaOH pH 7.5, 1.0 M NaCl, 20 µM ZnCl2, 5 mM β-mercaptoethanol; dimer, and dimer to tetramer
[1] = biological target: RSV IN(1–270)•C23S (Rous sarcoma virus (Prague A strain))
[2] = biological target: RSV IN(1–270) (Rous sarcoma virus (Prague A strain))
[3] = biological target: RSV IN(49–270) (Rous sarcoma virus (Prague A strain))

## RSV IN(1–270)•C23S (domain or fragment)
[1]
  stoichiometry N: 2

## RSV IN(1–270) (domain or fragment)
[2]
  stoichiometry N: 2 and 4

## RSV IN(49–270) (domain or fragment)
[3]
  stoichiometry N: 2
